Target: T1, extracellular region of FGFR1 fused to the Fc fragment (UniProt P11362 22-376)
T1 construct: extracellular region of FGFR1; also called FGFR1-Fc; source: produced in mammalian cells; as described previously [27-29]
T1 sequence (looked up): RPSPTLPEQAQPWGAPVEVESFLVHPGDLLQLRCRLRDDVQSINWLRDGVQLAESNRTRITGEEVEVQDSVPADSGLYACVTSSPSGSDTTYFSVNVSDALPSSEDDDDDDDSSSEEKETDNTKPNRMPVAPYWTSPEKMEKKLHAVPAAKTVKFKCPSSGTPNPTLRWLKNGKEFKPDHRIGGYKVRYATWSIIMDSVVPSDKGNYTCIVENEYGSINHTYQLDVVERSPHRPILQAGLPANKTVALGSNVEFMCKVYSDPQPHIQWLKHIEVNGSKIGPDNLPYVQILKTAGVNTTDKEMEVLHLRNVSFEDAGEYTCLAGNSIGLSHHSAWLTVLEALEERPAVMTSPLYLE
Experiment: SPR; Biacore 3000, 25 °C; FGFR1-Fc amine-coupled at low density (about 1000 RU) on CM4; FHF1 0.1-3.2 uM at 30 ul/min; PBS, 0.05% Tween 20, 0.2% BSA, 0.02% NaN3, pH 7.4; KD from fitted saturation binding curve (equilibrium responses); 1:1 model did not fit
Settings: both partners purified

Kd: 612 nM
B1: fibroblast growth factor homologous factor 1, short isoform (FHF1b) (ligand, human, UniProt P61328-2 1-181, looked up)
chain: MESKEPQLKGIVTRLFSQQGYFLQMHPDGTIDGTKDENSDYTLFNLIPVGLRVVAIQGVKASLYVAMNGEGYLYSSDVFTPECKFKESVFENYYVIYSSTLYRQQESGRAWFLGLNKEGQIMKGNRVKKTKPSSHFVPKPIEVCMYREPSLHEIGEKQGRSRKSSGTPTMNGGKVVNQDST
notes: short isoform (FHF1b) of human FHF1 (FGF12); construct in pDEST17; Construct from F. Nakayama; also called FGF12; source: E. coli BL21 CodonPlus (DE3) RIL, purified (His-Trap, desalting column)

Reference: publication PMC7193404, “FHF1 is a bona fide fibroblast growth factor that activates cellular signaling in FGFR-dependent manner” (Cell Communication and Signaling : CCS, 2020)
